Experimental data published in paper doi:10.1101/2024.09.02.610768 (bioRxiv, 2024).

Columns and labels:
[1] = target: T1, FrzCDΔMA (DB-H1-H2) (Myxococcus xanthus, UniProt P43500 1-137, del138-417); assay: EMSA
T1 sequence: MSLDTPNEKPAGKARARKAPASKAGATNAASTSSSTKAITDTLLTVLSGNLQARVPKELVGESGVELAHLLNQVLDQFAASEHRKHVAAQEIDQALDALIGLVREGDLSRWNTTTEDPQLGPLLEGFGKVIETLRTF

[2] = target: the molecule itself; assay: SEC-MALS
[3] = target: T2, FrzCD (Myxococcus xanthus, UniProt P43500 1-417); assay: EMSA
T2 sequence: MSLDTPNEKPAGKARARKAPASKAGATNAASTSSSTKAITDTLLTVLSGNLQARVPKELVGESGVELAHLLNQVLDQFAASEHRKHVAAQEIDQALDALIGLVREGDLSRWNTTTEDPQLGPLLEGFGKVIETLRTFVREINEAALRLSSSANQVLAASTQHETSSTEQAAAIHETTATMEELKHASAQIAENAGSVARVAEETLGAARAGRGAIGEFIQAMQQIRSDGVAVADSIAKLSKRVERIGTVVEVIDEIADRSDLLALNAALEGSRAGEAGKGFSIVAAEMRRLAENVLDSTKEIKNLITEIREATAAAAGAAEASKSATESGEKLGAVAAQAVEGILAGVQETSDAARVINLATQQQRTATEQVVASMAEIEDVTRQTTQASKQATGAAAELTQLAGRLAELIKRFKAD

[4] = target: T3, FrzCDΔH2 (DB-H1-MA) (Myxococcus xanthus, UniProt P43500 1-417, del84-137); assay: EMSA
T3 sequence: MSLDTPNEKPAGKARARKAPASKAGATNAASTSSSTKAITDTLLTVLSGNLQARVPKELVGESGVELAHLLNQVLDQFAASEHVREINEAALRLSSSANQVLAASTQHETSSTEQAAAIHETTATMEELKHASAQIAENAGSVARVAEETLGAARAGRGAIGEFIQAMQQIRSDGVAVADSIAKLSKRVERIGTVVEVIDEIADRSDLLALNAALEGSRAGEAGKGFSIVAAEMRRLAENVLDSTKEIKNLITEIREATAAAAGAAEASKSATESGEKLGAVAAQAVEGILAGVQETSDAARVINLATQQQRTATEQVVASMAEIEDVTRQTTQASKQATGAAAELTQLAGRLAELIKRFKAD

[5] = target: T4, FrzCDΔH1 (Myxococcus xanthus, UniProt P43500 1-417, del31-83); assay: EMSA
T4 sequence: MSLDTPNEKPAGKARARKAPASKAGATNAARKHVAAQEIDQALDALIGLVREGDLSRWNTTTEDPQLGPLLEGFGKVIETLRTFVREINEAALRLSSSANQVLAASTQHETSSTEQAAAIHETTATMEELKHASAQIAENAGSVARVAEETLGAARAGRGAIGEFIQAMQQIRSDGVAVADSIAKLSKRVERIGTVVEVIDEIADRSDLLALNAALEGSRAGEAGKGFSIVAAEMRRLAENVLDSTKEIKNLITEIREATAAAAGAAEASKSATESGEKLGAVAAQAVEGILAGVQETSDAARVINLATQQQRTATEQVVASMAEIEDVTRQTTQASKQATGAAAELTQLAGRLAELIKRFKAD

[6] = target: T1, FrzCDΔMA (DB-H1-H2); assay: SEC-MALS
[7] = target: T5, FrzCDΔH1ΔH2 (Myxococcus xanthus, UniProt P43500 1-417, del31-137); assay: EMSA
T5 sequence: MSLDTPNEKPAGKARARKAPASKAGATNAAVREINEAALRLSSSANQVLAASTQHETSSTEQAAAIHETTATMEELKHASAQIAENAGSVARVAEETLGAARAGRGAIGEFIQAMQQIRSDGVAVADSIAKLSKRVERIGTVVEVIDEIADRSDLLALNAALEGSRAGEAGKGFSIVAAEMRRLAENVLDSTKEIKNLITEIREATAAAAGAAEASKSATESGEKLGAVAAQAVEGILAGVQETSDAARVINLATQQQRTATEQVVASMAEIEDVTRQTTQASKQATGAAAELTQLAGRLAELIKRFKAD

[8] = target: T2, FrzCD; assay: SEC-MALS
[9] = target: T1, FrzCDΔMA (DB-H1-H2); assay: EMSA; remark: listed apart in the source
[10] = target: T5, FrzCDΔH1ΔH2; assay: BLI
[11] = target: T3, FrzCDΔH2 (DB-H1-MA); assay: BLI
[12] = target: T4, FrzCDΔH1; assay: BLI
[13] = target: T2, FrzCD; assay: BLI

B1: 12 bp DNA (dsDNA)
DNA 1: CTCACTATAGGG
DNA 2: CCCTATAGTGAG
binding result [1]: binds

B2: FrzCD^ΔH2 (receptor, Myxococcus xanthus, UniProt P43500 1-417, looked up)
chain: T3 sequence
stoichiometry N [2]: 4

B3: 8-base poly-A ssDNA (ssDNA)
DNA: AAAAAAAA
binding result [3]: binds

B4: FrzCD^ΔMA (domain or fragment, Myxococcus xanthus, UniProt P43500 1-137, looked up)
chain: T1 sequence
stoichiometry N [2]: 2

B5: 35 bp DNA (dsDNA)
DNA 1: GTCACCTGCTCTAGCTAATAGACTGAGCCGAGGTG
DNA 2: CACCTCGGCTCAGTCTATTAGCTAGAGCAGGTGAC
binding result [4]: binds | binding result [5]: binds | binding result [6]: binds | binding result [7]: binds | binding result [8]: binds

B6: FrzCD^ΔH1ΔH2 (receptor, Myxococcus xanthus, UniProt P43500 1-417, looked up)
chain: T5 sequence
stoichiometry N [2]: 4

B7: 8 bp DNA (dsDNA)
DNA 1: ACTGCAGT
DNA 2: ACTGCAGT
binding result [9]: binds | binding result [3]: binds

B8: FrzCD^ΔH1 (receptor, Myxococcus xanthus, UniProt P43500 1-417, looked up)
chain: T4 sequence
stoichiometry N [2]: 4

B9: FrzCD full-length (His6-tagged) (receptor, Myxococcus xanthus, UniProt P43500 1-417, looked up)
chain: T2 sequence
stoichiometry N [2]: 2

B10: 178 bp DNA (dsDNA)
DNA 1: GGATCGCATCTGCCTACATCCCCAGCTCCCGGTCGGTCCGCTCGGAACCTAGCCCGGGTCAAAGACCCGGGGTCTATGTTGACCCATTTGGTGGGGATGGGTCTAATTGGACCTGGCGTTTTTTCGCGCCATGGAAATGTCAAGGCCCGTGATTCCAGACTGTTGGGCAGGGAGTT
DNA 2: AACTCCCTGCCCAACAGTCTGGAATCACGGGCCTTGACATTTCCATGGCGCGAAAAAACGCCAGGTCCAATTAGACCCATCCCCACCAAATGGGTCAACATAGACCCCGGGTCTTTGACCCGGGCTAGGTTCCGAGCGGACCGACCGGGAGCTGGGGATGTAGGCAGATGCGATCC
Kd [10]: 203 nM | Kd [11]: 2640 nM | Kd [12]: 2270 nM | Kd [13]: 1070 nM
